# From article PMC10802472 (bioRxiv, 2024)
# Target: the molecule itself
# Test: cryo-EM structure
row,Protein,stoichiometry N
1,"ACAD11 K* mutant (kinase-inactive mouse ACAD11) (enzyme, UniProt Q80XL6 1-779, looked up) METDVTSDTVEVLPQHKFDLRSLEAYLNQHLPGFGSDSRAVLTVTQYRSGQSNPTFFLQKGSQAYVLRKKPPGSLLPKAHKIDREFKIQKALFSIGFPVAKPLLYCRDASVIGTEFYVMEHVQGRIFRDFSIPGVSSAERAAIYVSVAETLAWLHSLDIRSLKLDKYGTGVGYCKRQVSTWTKQYQASAHQSIPAMDQLSTWLMKNLPDSDSEECLVHGAFKLDNIVFHPKECRVIAVLDWELSTFGHPLTDLAHLSLFYYWPRTLPMINRGSHIPENTGIPLMEELISIYCHRRGIDPNLPNWNFFMALSFFKLAGISQGVYRRYLMGNNSSEDSFLTANTVQPLAETGLQLSKRTLRTTPPQADAKSQLFAQSRRGQEVLTRVKQFMKQHVFPAEKEVAEYYAQSGNSAEKWGHPLVIEKLKEMAKAEGLWNLFLPAVSGLSQVDYALIAEETGKCFFAPDVFNCQAPDTGNMEVLHLYGSEQQKKQWLEPLLRGDITSVFCMTEPNVSSSDATNIECTIQRDGGGYIVNGKKWWSSGAGNPKCKIAIVLGRTESPSASRHRQHSMILVPMDTPGVELIRPLSVFGYMDNMHGGHWEVHFNHVRVPASNLILGEGRGFEISQGRLGPGRIHHCMRTVGLAERILQIMCDRAVQREAFKKKLYEHEVVAHWIAKSRIAIEEIRLLTLKAAHSIDTLGSASARKEIAMIKVAAPKAVCKIADWAIQVHGGAGVSQDYPLANMYAIIRTLRLADGPDEVHLSAIAKMELQDQARRLTARM",4
2,"ACAD11 A* mutant (ACAD-inactive mouse ACAD11) (enzyme, UniProt Q80XL6 1-779, looked up) METDVTSDTVEVLPQHKFDLRSLEAYLNQHLPGFGSDSRAVLTVTQYRSGQSNPTFFLQKGSQAYVLRKKPPGSLLPKAHKIDREFKIQKALFSIGFPVAKPLLYCRDASVIGTEFYVMEHVQGRIFRDFSIPGVSSAERAAIYVSVAETLAWLHSLDIRSLKLDKYGTGVGYCKRQVSTWTKQYQASAHQSIPAMDQLSTWLMKNLPDSDSEECLVHGDFKLDNIVFHPKECRVIAVLDWELSTFGHPLTDLAHLSLFYYWPRTLPMINRGSHIPENTGIPLMEELISIYCHRRGIDPNLPNWNFFMALSFFKLAGISQGVYRRYLMGNNSSEDSFLTANTVQPLAETGLQLSKRTLRTTPPQADAKSQLFAQSRRGQEVLTRVKQFMKQHVFPAEKEVAEYYAQSGNSAEKWGHPLVIEKLKEMAKAEGLWNLFLPAVSGLSQVDYALIAEETGKCFFAPDVFNCQAPDTGNMEVLHLYGSEQQKKQWLEPLLRGDITSVFCMTEPNVSSSDATNIECTIQRDGGGYIVNGKKWWSSGAGNPKCKIAIVLGRTESPSASRHRQHSMILVPMDTPGVELIRPLSVFGYMDNMHGGHWEVHFNHVRVPASNLILGEGRGFEISQGRLGPGRIHHCMRTVGLAERILQIMCDRAVQREAFKKKLYEHEVVAHWIAKSRIAIEEIRLLTLKAAHSIDTLGSASARKEIAMIKVAAPKAVCKIADWAIQVHGGAGVSQDYPLANMYAIIRTLRLANGPDEVHLSAIAKMELQDQARRLTARM",4
